The values that follow come from US6365711 (Harvard, dated 2002).

The target in this assay is T1, Myc-tagged Δ473-534 (Xenopus, UniProt P70056 61-472).
T1 construct: also called deletion of an additional 33 C-terminal amino acids
T1 sequence: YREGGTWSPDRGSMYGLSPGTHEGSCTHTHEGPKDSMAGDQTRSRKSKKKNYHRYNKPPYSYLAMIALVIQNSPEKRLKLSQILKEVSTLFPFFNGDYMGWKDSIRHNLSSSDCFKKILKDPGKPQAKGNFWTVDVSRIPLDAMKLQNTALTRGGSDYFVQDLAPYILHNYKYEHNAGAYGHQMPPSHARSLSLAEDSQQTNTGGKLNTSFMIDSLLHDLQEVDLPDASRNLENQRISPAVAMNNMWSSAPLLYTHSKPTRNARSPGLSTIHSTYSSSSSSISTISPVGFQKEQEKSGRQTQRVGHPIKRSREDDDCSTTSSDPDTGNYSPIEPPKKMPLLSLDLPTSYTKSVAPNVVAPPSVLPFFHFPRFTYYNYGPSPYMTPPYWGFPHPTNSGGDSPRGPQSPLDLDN
Kind of assay: FAST-1 deletion mutant co-expressed with tagged Smad in Xenopus embryos.

B1: Myc-tagged Smad2 (other, not shown: small tags and cut ends)
chain: MSSILPFTPPVVKRLLGWKKSASGTTGAGGDEQNGQEEKWCEKAVKSLVKKLKKTGQLDELEKAITTQNCNTKCVTIPSTCSEIWGLSTANTIDQWDTTGLYSFSEQTRSLDGRLQVSHRKGLPHVIYCRLWRWPDLHSHHELKAIENCEYAFNLKKDEVCVNPYHYQRVETPVLPPVLVPRHTEILTELPPLDDYTHSIPENTNFPAGIEPQSNYIPETPPPGYISEDGETSDQQLNQSMDTGSPAELSPSTLSPVNHNLDLQPVTYSEPAFWCSIAYYELNQRVGETFHASQPSLTVDGFTDPSNSERFCLGLLSNVNRNATVEMTRRHIGRGVRLYYIGGEVFAECLSDSAIFVQSPNCNQRYGWHPATVCKIPPGCNLKIFNNQEFAALLAQSVNQGFEAVYQLTRMCTIRMSFVKGWGAEYRRQTVTSTPCWIELHLNGPLQWLDKVLTQMGSPSVRCSSMS
notes: Expressed from injected RNA in Xenopus embryos; also called Myc-Smad2
For the molecule B1, the binding result is recorded as “no binding”.
